Measured values published in article PMC3663649 (2013).

Experiments:
[1] = target: T1, H3KC36me3 nucleosomes (recombinant MLA nucleosomes reconstituted on 601 DNA) (Drosophila, UniProt P02299 1-136; P84040 1-103; P84051 1-124; P02283 1-123, H3KC36me3, cysteine at 36 alkylated to a thioether mimic of trimethyl-lysine (H3KC36me3)); assay: EMSA titration 1 (top)
[2] = target: T1, H3KC36me3 nucleosomes (recombinant MLA …); assay: EMSA titration 2 (bottom)

Kd [1]: 400 nM
Kd [2]: 600 nM
B1: GST-PWWP (PSIP1-PWWP domain, residues 3 to 100, GST fusion) (domain or fragment)
chain: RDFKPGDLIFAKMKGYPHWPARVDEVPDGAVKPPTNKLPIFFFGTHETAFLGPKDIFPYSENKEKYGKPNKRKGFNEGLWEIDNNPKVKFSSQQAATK
